US6942988

Key:
[1] = target: carboxyl-terminal Myc-tagged Ptc-CTD (mouse Ptc with a 140-residue carboxyl-terminal deletion; amino acids 1-1,291) (mouse) (UniProt Q61115); experiment: competition with 0.9 nM 32P-Shh-N for binding to EcR-293 cells expressing Ptc-CTD, 4 C; KI from IC50
[2] = target: carboxyl-terminal Myc-tagged Ptc-CTD (mouse Ptc with a 140-residue carboxyl-terminal deletion; amino acids 1-1,291) (mouse) (UniProt Q61115); experiment: Scatchard analysis of the high-affinity component of 32P-Shh-N binding to EcR-293 cells expressing Ptc-CTD, 4 C
[3] = target: carboxyl-terminal Myc-tagged Ptc-CTD (mouse Ptc with a 140-residue carboxyl-terminal deletion; amino acids 1-1,291) (mouse) (UniProt Q61115); experiment: binding of 32P-Shh-N to EcR-293 cells expressing Ptc-CTD without competitor
[4] = target: carboxyl-terminal Myc-tagged Ptc-CTD (mouse Ptc with a 140-residue carboxyl-terminal deletion; amino acids 1-1,291) (mouse) (UniProt Q61115); experiment: Table 1 'Ptc-CTD affinity'; for wild type the dissociation constant (KL), as from the Scatchard analysis of 32P-Shh-N on EcR-293 cells expressing Ptc-CTD

Sequence of carboxyl-terminal Myc-tagged Ptc-CTD (mouse Ptc with a 140-residue carboxyl-terminal deletion; amino acids 1-1,291) (mouse) (Q61115 1-1291, stated change not applied): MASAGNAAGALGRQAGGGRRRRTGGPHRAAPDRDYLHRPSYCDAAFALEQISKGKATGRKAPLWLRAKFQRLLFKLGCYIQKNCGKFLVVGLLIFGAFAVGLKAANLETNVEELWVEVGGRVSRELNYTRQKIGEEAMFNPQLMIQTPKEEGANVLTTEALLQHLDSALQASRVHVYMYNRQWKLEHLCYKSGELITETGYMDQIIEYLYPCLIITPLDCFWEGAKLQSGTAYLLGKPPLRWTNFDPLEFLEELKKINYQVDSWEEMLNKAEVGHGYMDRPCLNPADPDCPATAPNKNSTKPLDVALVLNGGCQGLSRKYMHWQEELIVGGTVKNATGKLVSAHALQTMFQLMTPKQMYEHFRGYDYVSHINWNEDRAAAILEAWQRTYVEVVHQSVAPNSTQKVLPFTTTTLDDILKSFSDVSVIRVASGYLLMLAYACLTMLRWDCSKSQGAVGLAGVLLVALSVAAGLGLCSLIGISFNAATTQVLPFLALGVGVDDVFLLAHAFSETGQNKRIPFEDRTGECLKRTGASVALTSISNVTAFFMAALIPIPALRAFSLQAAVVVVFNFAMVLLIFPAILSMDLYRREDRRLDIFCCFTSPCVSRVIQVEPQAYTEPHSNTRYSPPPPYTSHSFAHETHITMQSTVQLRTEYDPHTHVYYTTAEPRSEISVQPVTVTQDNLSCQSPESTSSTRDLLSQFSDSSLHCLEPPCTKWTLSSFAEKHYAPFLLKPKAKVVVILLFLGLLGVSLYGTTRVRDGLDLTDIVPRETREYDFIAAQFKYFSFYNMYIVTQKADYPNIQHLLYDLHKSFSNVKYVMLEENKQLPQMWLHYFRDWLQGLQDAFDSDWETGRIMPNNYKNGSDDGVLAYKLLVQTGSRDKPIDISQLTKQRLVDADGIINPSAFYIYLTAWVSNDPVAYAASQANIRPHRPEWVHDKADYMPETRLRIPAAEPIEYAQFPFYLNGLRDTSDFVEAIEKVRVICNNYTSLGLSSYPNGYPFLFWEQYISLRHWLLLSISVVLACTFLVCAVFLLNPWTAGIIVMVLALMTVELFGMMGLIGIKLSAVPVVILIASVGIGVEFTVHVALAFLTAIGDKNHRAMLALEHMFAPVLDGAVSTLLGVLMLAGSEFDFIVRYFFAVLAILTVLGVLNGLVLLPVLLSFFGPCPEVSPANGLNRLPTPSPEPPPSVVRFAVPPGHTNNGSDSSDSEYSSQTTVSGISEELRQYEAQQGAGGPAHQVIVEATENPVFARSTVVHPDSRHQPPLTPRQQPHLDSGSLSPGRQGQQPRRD

Substance	Ki [1] [nM]	other results
Shh-N SB altered protein (N51A, V52A, T56A, E168A) (from UniProt Q62226 25-198) (ligand)	0.48	–
32P-labeled Shh-N protein with a protein kinase A site tag (RRASV) at the carboxy terminus (from UniProt Q62226 25-198) (ligand)	–	Kd [2]: 0.48 nM; percent of input bound in the absence of competitor [3]: 35 % of input
Shh-N SC mutant protein (P42A, K46A, R154A, S157A, S178A, K179A) (from UniProt Q62226 25-198) (ligand)	> 36	–
wild-type Sonic hedgehog amino-terminal signaling domain protein (Shh-N), aa 25-198 (from UniProt Q62226 25-198) (ligand)	–	Kd [4]: 0.48 nM
Shh-N SF protein (R154A, S157A) (from UniProt Q62226 25-198) (ligand)	9.1	–
Shh-N SG protein (S178A, K179A) (from UniProt Q62226 25-198) (ligand)	4.3	–
Shh-N SD altered protein (E90A, D132A, E138A) (from UniProt Q62226 25-198) (ligand)	0.84	–
Shh-N H135A, E177A double mutant (EH) protein (from UniProt Q62226 25-198) (ligand)	1.7	–
Shh-N H135A (HA) mutant protein (from UniProt Q62226 25-198) (ligand)	0.63	–

Continued, in another order:

Ki [1] [nM]	Substance	other results
1.7	Shh-N E177A (EA) mutant protein (from UniProt Q62226 25-198) (ligand)	–
0.66	Shh-N SA altered protein (K75A, E76A, Y81A, D105A, N116A, E189A, K195A) (from UniProt Q62226 25-198) (ligand)	–
2.4	Shh-N SE protein (P42A, K46A) (from UniProt Q62226 25-198) (ligand)	–
